According to the nanobody polyreactivity screen of Harvey et al. (2022):

Assay: yeast display, Sf9 membrane polyspecificity reagent, FACS + sequencing; frameworks hold sequencing errors
Summary of the method: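 Using colony PCR, genes from sorted yeast display clones were amplified, then sequenced on MiSeq at 2 × 250 and filtered by CDR length. The clones had been stained with 10% biotinylated, detergent-solubilized Sf9 membrane reagent for 1 hour at 4 °C and sorted by FACS into low and high (top ~1%) gates on anti-HA and streptavidin fluorescence. Polyreactivity labels come from the gate of origin.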

QVQLVESGGGLVQAGGSLRLSCAASGSTSYDNAMGWYRQAPGKERELDASISSDGSTNYADSVKGRFTISRDNAKNTVYLQMNSLKPEDTAVYYCNVEVTRGLSHDPEYDYWGQGTQVTVSS
polyreactivity (PSR sort gate): low polyreactivity

QVQLVESGGGLVQAGGSLRLSCAASGSTFRYYAMGGSRQEPGKESELVAVISTSGNTYYADSVKGRFTISRDNAKNSVYLQMNSLKPEDTAVYYCAARGVGGQISQEYDYWGQGTQVTVSS
polyreactivity (PSR sort gate): low polyreactivity

QVQHVESGGGLVQAGGSLRLSCAASGFIFASYAMGWSRQPPGKERELVAAISWRGGSTYYADSVKGRFTISRDNAKNTLYLQMNSLKPVDTAVYYCNAYVYVCTGRGYDTLDYWGQGTQVTVSS
polyreactivity (PSR sort gate): low polyreactivity

QVQLVESGGGLVQAGGSLRLSCAASGSTYSWYAMGWYRQAPGKERELVASISWRGGSTYYADSVKGRFTISRDNAKNTVYLQMNSLKPEDTAVYYCAADYYWKLFHEPPAVYDYDYWGQCTQVTVSS
polyreactivity (PSR sort gate): low polyreactivity

QVQLVESGGGLVQAGGSLRLSCAASGIIFIAYAMGWYRQAPGKERELVADISIGGSTNYADSVKGRFTISRDNAKNTVYLQMNSLKPEDTAVYYCNAGGGFYGSTVEHDYWGQGTQVTVSS
polyreactivity (PSR sort gate): low polyreactivity

QDQLVESGGGLVQAGGSLRLICAASGRIFGVNAMGWYRQAPGKERELVAVISSGGSTYYADSVKGRFTISRDNAKNTVYLQMNSLKPEDTAVYYCAAEIYFFVSYDYWGQGTQVTVSS
polyreactivity (PSR sort gate): low polyreactivity

QVQLVESGGGLVQAGGSLRLSCAASGSIFSYYAMGWYRQAPGKERELVAAITSGGSTYYSDSVKGRFTISRDNAKNTVYLQMNSLKPEDTAVYYCAREKWPSQYDYWGQGTQVTVSS
polyreactivity (PSR sort gate): low polyreactivity

QVQLVESGGGLVQAGGSLRLSCAASGSISYPKAMGWYRQAPGKERELVAAINSGDRTNYADSVKGRFTISRDNAKNTVYLQMNSLKPEDTAVYYCARRRYFLWGGYGYWGQGTQVTVSS
polyreactivity (PSR sort gate): low polyreactivity

QVQLVESGGGLVQAGGSLRLSCAASGSIFFGNAMGWYRQAPGKERELVAAISTTGGSTYYADSVKGRFTISRDNAKNTVYLQMNSLKPEDTAVYYCNADRATWWEQWWYDYWGQGTLVTVSS
polyreactivity (PSR sort gate): low polyreactivity

QVQLVESGGGLVQAGGSLRLSCAASGRTFYDYTMGWYRQAPGKERELVAAISQRGGSTYYADSVKGRFTISRDNAKNTVYLQMNSLKPEDTAVYYCAARTSYSGNKYYYWGQGTQVTVSS
polyreactivity (PSR sort gate): high polyreactivity

QVQLHQSGGGLVQAGGTLRLSCAPSGNISVTYNMGWYRQAPGKEREFVAGNSTGATTNYADSVTGRFTISRDNAKNSVYLQMNSLKPEDTAVYYCAAHIYRQDHFYYWGQGTQVTVSS
polyreactivity (PSR sort gate): low polyreactivity

QVQLVESGGGLFQAGGSLRLSCAASGSIFEFNAMGWYRQAPGKERELVAGITNSGSSTYYADSVKGRLTISRDHAKNTVYLQMNSLKPEDTAVFYCNARLSRWRRRPYDYWGQGTQVTVSS
polyreactivity (PSR sort gate): high polyreactivity

QVQLVESGRGLVQAGVSLRLSCAASGSTFGYYAMGWYRQAPGKERELVAAISYSGGSTYYADSVKGRFTISRDNAKNTVYLQMNSLKQEDTAVYYCAARFTRQMYYWGQGTQVNVSS
polyreactivity (PSR sort gate): high polyreactivity

QVQLVESGGGLVQAGGSLRLSCAASGSIFSANVMVWYRQAPGKEWELVAASRRGGTTYYADSVKGRFTISRDNAKNTVYLQMNSLKPEDTAVYYCATDGNFGSYLRFAVAYDYWGQGTQVTVSS
polyreactivity (PSR sort gate): low polyreactivity

QVQLVESGGGLVQAGGSLRLSCAASGRIFHYYAMGWYRQAPGKERELVAAISYSGTRTYYADSVKGRFTISRDNAKNTVYLQMNSLNPEDTAVYYCNAARSTNFDYWGQGTQVTVSS
polyreactivity (PSR sort gate): high polyreactivity

QVQLVESGRGLVQAGGSLRLSCAASGFTFYYYAMGRYRQAPGKERELVAAISTRDGNTYYADSVKARFTISRDNAKNTVYLQMKSLKTEVTAVYYCAAAYFRYYPYDYWGQGTLVTVSS
polyreactivity (PSR sort gate): low polyreactivity

QVQLVESGGGLVQAGGSLRLSCSASGIILPVYAMGWYRQAPGKEMELVAAISRDGGSTYYSDSVKGLFTISRDNAKNNVYLLMNSLKPEDTAVYYCNAVWRGIYFNGKFDYWGQGTQVTVSS
polyreactivity (PSR sort gate): high polyreactivity

QVQLVESGGGLVQAGGSLRLSCAASGRTFGIYAMGWYRQAPGKERELVASITRSSGGTYYADSVKGRFTISRDNAKNTVYLQMNSLKPEDTAVYYCAARLQGRYKYGYWGQGTQVTVSS
polyreactivity (PSR sort gate): high polyreactivity

QVQLVESGGGLVQAGGSLRLSCAASGYIFVIYAMGWYSQAPGEERELVAAISWSGDTTYYADSVKGRFTISRDNAKNTVYLQMNSLQPEDTAVFYCNAETAYYQVDYCGQGTQVTVSS
polyreactivity (PSR sort gate): low polyreactivity

QVQLVESGGGLVQAGGSLRLSCAASGSIFYGYTMGWYRQEPGKERELVAAIRKSGGSTNYADSVKGRFTISRDNAKNTVYLQMNSLKPEDTAVFYCAAAYYRGRGYYWGQGTQVTESS
polyreactivity (PSR sort gate): high polyreactivity

QVQLVESGGGLVQAGGSLRLSCAASGRTFYIYAMGWYRQAPGKERELVASINWSTGRTYYADSVKGRFTISRDNAKNTVYLQMNSLKPEDTAVYYCATDGDYYYISQGRRGYRYNYWGQGTQVTVSS
polyreactivity (PSR sort gate): high polyreactivity

QDQLVESGGGLVQAGRSLRLSCAASGRIFYYNAMGWYRQAPGKERELVAAISYTDDSTYADSVKGRFTISRDNAKNTVYLQLNSLKPEDTAVYYCAADAVAYIYGYDYDYWGQGTQVTVSS
polyreactivity (PSR sort gate): low polyreactivity

QVQLVESGAGLVQAGGRLRLSCAASGIIFYNYAMGWYRQAPGKERQFVAAISWSGGSTNYADSVKGRFTISRDNAKNTVYLQMNSLKPEDTAVYYCAAEYSGNNYNSDYWGQGTQVTVSS
polyreactivity (PSR sort gate): low polyreactivity

QVQLVESGGGLVQAGGSLRLSCAASGRIIPAYDMGWYRQAPGKERELVAAISQGAGGSTYYADSVKGRFTISRDNAKNTVYLQMISLKPEDTAVYSCAREGESGVVDTYGHVYVYEYDYWGQGTQVTVSS
polyreactivity (PSR sort gate): low polyreactivity

QVQLVESGGRLVQAGGSLRLSCDASGSIFAYYAMGGYRQAPGKERELVAAMCSGGGTYYADSVKGRFTISRDKAKTTVYLQMNSLKPEDTAVYYCAADGLWHIFYPGTGVDYWGQGTQVTVSS
polyreactivity (PSR sort gate): low polyreactivity

QVQLVESGGGLVQAGGSLRLSCAASGNIFYQYAMGWYRQAPGKEREFVAAISISGTSTYADSVKGRFTISRDNAKNTVYLQMNSLKPEDTAVYWGQGTQVTVSS
polyreactivity (PSR sort gate): low polyreactivity

QVQLVESGGGLVQAGGSLRLSCAASGRTIGAYAMGWYRQAPGKEREFVAAITFGGGPTYYADSVKGRFTISRDNAKNTVYLQMNSLKPEDTAVYYCAKRIDLSFPYARYDYWGQGTQVTVSS
polyreactivity (PSR sort gate): low polyreactivity

QVQLVESGGGIVQAGGSLRLRCAASGYTFEDNDMGLYRQAPGKERELVAAISVNGGSTYYADSVKGRFTISRDNAKKTVYLQMNSLKPVDTAVFYCNVDTLIGSLYGYDYWGQGTQVTVSS
polyreactivity (PSR sort gate): high polyreactivity

QVQLVDSGGGLVQAGGSLRLSCAASGRIIGGKAMGWYRLAPGKVREFVAAIRASGGSPHYADSVKGRFTISRDNAKNTVYLQRNSLTPEDTEVYYCNALSRNTHLYDYWGQGTHVTVSS
polyreactivity (PSR sort gate): high polyreactivity

QVQIVESGGGLVQAGGSLRLSCAASGSTFYRNAMGWYRQAPGKEREFVATISWNGGNTYYADSVKGRFTISRDNAKNTVYLQMNSVKPEDTAVYYCDARVKYRTSGGTVVSYDYWGQGTQVTVSS
polyreactivity (PSR sort gate): high polyreactivity

QVQLVESGGGLVQAGGSLLLSCAASGFTFKYYAMGWYRQEPGKERELVAAINRSVGSTYYADSVKGRFTISRDNAKNTVYLQMNSLKPEDTAVYYCNARVRVPVTLHDYWGQGTQVTVSS
polyreactivity (PSR sort gate): high polyreactivity

QVQHVESGGGLVQAGGSHPLSCAASGRIFQYNALGWYRKATGKERELLAAISLSGVRTYYADSVKGRFTISRDNAKNTVYLQMNSLKPEDTAVYYCAAVRFDRARGSPYPDRVGVYSWGQGTQVTVSS
polyreactivity (PSR sort gate): high polyreactivity

QVQLQESGDGLVQAVGSLRLSCAASGYISGYYYMGWYRQAPGKERELVAGIDAFGSSTNYADCVKGRFTISRDNAKTTVYLPPNSPKPEDTAVYYCAAEYDDWDYHWYWGQGTQVTVSS
polyreactivity (PSR sort gate): low polyreactivity

QVQLVESGGGLVQAGGSLRLSCAASGRIFYYNTMGWYRQAPGKERELVAAISRSGGSTYYADSVKGRFTISRDNAKNTVYLQMNSLKPEDTAVYYCAAVTHRYGNSEFDYWGLGTQVTVSS
polyreactivity (PSR sort gate): high polyreactivity

QVQLVESGGGLVQAGGTLRLSCAASGRTFGTYAMGWYRQEPGKERELVAAIRSNAGSTYYADSVKGRFTISRDNAKNTVYLQMNSLKPEDTAVYYCAKSYPSSRRYNFWGQGTQVTVSS
polyreactivity (PSR sort gate): high polyreactivity

QVQLVESGGGLVQAGGSLRLSCAASGRIIYYYAMGWYRQAPGKERELVAAISWSGVNTYYADSVKGRFTISRDNAKNTVYLQMNSLKPEDTAVYYCAAGFAYKYSKGFWSDYWGQGTQVTVSS
polyreactivity (PSR sort gate): high polyreactivity

QVQLVESGGGLVQAGGSLRLSSAASGSTFTSYAMGWYRQAPGKERELVAAINYSGGSTYYADSVKGRFTISRDNAKNNVYLQMNILKQEDTAVYDCAADGYIRQYVTYYYWGQGTQVTVSS
polyreactivity (PSR sort gate): low polyreactivity

QVQLVESGGGLVQAGGSLRLSCAASGRIFAWNDMGWYRQAPGKERELVAAITSGGSTYYADSVKGRFTISRDNAKNTVYLQMNSLKPEDTAVYYCAAEVYVPDYFQHKFDVEYEYWGQGTQVTVSS
polyreactivity (PSR sort gate): low polyreactivity

QVQLVESGGGLVQAGGSLRLSCAASGITFYVNAMGWYRQAPGKERELVASISTGGSTNYADSVKGRFTISRDNAKNTVYLQMNSLKPEDTAVYYCAARVDYHPSLRDYWGQGTQVTVSS
polyreactivity (PSR sort gate): low polyreactivity

QVQLVESGGGLVQAGGSLRLSCAASGSTFQRYAMGGYRQAPGKERQLVAAISSGGSTYYADSVKGRFTISRDNAKNTVYLQINSLKPEDTAVYYCAARIYVVWSSRVYWMYYWGQGTQVTVSS
polyreactivity (PSR sort gate): high polyreactivity

QVQLVESWGGLVQAGGSLRLSCAASGMGRYRQAPGKERELVAAINWSGGNTYYADSVKGRFTISRDNAKNTVYLQMNSLIPEDTAVDYCNAVVWVEVPGDYWGQGTQVTVSS
polyreactivity (PSR sort gate): low polyreactivity

QVQLVESGGGLVQAGGSRLSCAASGRIFPVYAMGWYIQAPGKERELVAGINSSGDNTYYADSVKGRFTISRDNAKNTVYLQMNSLKPEDTAVYYCAAYYPYYVPYGFDYCGQGTQVTVSS
polyreactivity (PSR sort gate): low polyreactivity

QVQLVESGGGLVQAGGSLRLSCAASGITFPPYAMGWYRQAPGKERELVAAISWSGTSTYYADSVKGRFTISRDNAKNPVYLQMNSLKPEDTAVYYCAAVPRHPYHDKYDYWGQGTQVTVSS
polyreactivity (PSR sort gate): high polyreactivity
